Assay results: publication PMC7354924

Columns and labels:
[1] = molecular target: bone morphogenetic protein 2 (BMP2) (human) (UniProt P12643)
[2] = molecular target: growth differentiation factor 5 (GDF5), wild type (human) (UniProt P43026)
[3] = molecular target: bone morphogenetic protein 2 (BMP2) (human) (UniProt P12643); assay: SPR; ProteOn XPR36; BMP2 (570 RU), GDF5 (470 RU), TGF-β2 (300 RU) or activin A (350 RU) amine-coupled to a GLC sensor chip; analyte perfused (RGMB 50 to 1.56 nM at 150 or 100 µl/min; BMPR1A 1000 to 31.25 nM at 100 µl/min); 20 mM HEPES pH 7.4, 500 mM NaCl, 3.4 mM EDTA, 0.005% (v/v) Tween 20; 25 °C; Langmuir 1:1 kinetic fit (parameters local for RGMB), Kd = koff/kon; apparent
[4] = molecular target: growth differentiation factor 5 (GDF5), wild type (human) (UniProt P43026); assay: as above
[5] = molecular target: GDF5 variant Arg438Ala (human) (UniProt P43026); assay: SPR; GDF5 wild type (500 RU), Arg438Ala (702 RU) or Arg438Leu (977 RU) amine-coupled to a GLC sensor chip; RGMECD proteins from FreeStyle 293 cells as analytes, six concentrations (log2 series from 40, 30, 20 or 10 nM), 100 µl/min; 20 mM HEPES pH 7.4, 500 mM NaCl, 3.4 mM EDTA, 0.005% (v/v) Tween 20; kon and koff fitted globally, Kd = koff/kon; two independent experiments; apparent
GDF5 variant Arg438Ala (human), sequence (P43026 28-501 R438A): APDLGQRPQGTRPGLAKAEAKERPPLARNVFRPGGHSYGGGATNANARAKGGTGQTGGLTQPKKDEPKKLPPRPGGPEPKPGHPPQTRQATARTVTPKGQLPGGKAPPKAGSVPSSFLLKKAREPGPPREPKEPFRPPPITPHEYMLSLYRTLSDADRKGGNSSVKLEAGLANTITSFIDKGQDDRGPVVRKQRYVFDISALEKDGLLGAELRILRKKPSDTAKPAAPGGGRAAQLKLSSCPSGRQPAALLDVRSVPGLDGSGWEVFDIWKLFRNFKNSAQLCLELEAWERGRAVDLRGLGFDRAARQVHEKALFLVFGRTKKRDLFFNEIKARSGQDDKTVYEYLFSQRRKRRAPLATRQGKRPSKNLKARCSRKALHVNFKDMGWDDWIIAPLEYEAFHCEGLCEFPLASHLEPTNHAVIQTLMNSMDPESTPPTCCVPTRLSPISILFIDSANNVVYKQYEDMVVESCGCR

[6] = molecular target: GDF5 variant Arg438Leu (human) (UniProt P43026); assay: as above
GDF5 variant Arg438Leu (human), sequence (P43026 28-501 R438L): as the sequence (P43026 28-501 R438A) above, with A411L counted along it

[7] = molecular target: growth differentiation factor 5 (GDF5), wild type (human) (UniProt P43026); assay: as above
[8] = molecular target: bone morphogenetic protein 2 (BMP2) (human) (UniProt P12643); assay: SPR; ProteOn XPR36; BMP2 (570 RU) or GDF5 (470 RU) amine-coupled to a GLC sensor chip; ActR2b ectodomain perfused at 6 µM to 187.5 nM, 100 µl/min; 0.005% (v/v) Tween 20 buffer; Kd from the dose-dependency of equilibrium binding, one-site model; apparent
[9] = molecular target: GDF5 variant Tyr487Lys/Gln489Asp (UniProt P43026); assay: SEC-MALS; RGMBND–GDF5(Tyr487Lys/Gln489Asp)–ActR2bECD complex, 1 mg/mL, Superdex 200 HR 10/30, 0.5 M NaCl, 20 mM Hepes pH 7.4, 21 °C
GDF5 variant Tyr487Lys/Gln489Asp, sequence (P43026 28-501 Y487K/Q489D): as the sequence (P43026 28-501 R438A) above, with A411R, Y460K, Q462D counted along it

bone morphogenetic protein 2 (BMP2) (human), sequence (P12643 24-396): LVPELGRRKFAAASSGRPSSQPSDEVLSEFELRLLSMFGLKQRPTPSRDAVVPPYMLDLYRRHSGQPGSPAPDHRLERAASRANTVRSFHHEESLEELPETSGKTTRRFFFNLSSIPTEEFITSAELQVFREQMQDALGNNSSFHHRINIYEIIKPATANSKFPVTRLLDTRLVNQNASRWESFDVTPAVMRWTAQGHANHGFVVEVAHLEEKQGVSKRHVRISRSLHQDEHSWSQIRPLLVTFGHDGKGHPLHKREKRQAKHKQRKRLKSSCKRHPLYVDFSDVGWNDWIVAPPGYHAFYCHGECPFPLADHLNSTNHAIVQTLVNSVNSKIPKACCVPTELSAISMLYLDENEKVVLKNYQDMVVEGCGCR
growth differentiation factor 5 (GDF5), wild type (human), sequence (P43026 28-501): as the sequence (P43026 28-501 R438A) above, with A411R counted along it

Binder | Kd [5] [nM] | koff [5] [s⁻¹] | kon [5] [M⁻¹ s⁻¹] | Kd [6] [nM] | koff [6] [s⁻¹] | kon [6] [M⁻¹ s⁻¹] | Kd [7] [nM] | koff [7] [s⁻¹] | kon [7] [M⁻¹ s⁻¹] | further results
soluble mature RGMB (Gln49-Gly412) produced in insect cells (domain or fragment) QQPAQCRIQKCTTDFVSLTSHLNSAVDGFDSEFCKALRAYAGCTQRTSKACRGNLVYHSAVLGISDLMSQRNCSKDGPTSSTNPEVTHDPCNYHSHAGAREHRRGDQNPPSYLFCGLFGDPHLRTFKDNFQTCKVEGAWPLIDNNYLSVQVTNVPVVPGSSATATNKITIIFKAHHECTDQKVYQAVTDDLPAAFVDGTTSGGDSDAKSLRIVERESGHYVEMHARYIGTTVFVRQVGRYLTLAIRMPEDLAMSYEESQDLQLCVNGCPLSERIDDGQGQVSAILGHSLPRTSLVQAWPGYTLETANTQCHEKMPVKDIYFQSCVFDLLTTGDANFTAAAHSALEDVEALHPRKERWHIFPSSG |  |  |  |  |  |  |  |  |  | Fig. S3C: IC50 of soluble RGMB for inhibition of BMP2 (10 nM)-induced alkaline phosphatase expression in ATDC5 cells [1]: > 1500 nM; Fig. S3C: inhibitory constant Ki of soluble RGMB (Cheng-Prusoff, from EC50 and IC50) for BMP2-induced alkaline phosphatase expression in ATDC5 cells [1]: > 500 nM; Fig. S3G: IC50 of soluble RGMB for inhibition of BMP2 (10 nM)-induced SMAD signaling (BRE-Luc reporter) in C3H10T1/2 cells [1]: 41 nM; Fig. S3D: IC50 of soluble RGMB for inhibition of GDF5 (20 nM)-induced alkaline phosphatase expression in ATDC5 cells [2]: 166 nM; Fig. S3D: inhibitory constant Ki of soluble RGMB (from EC50 and IC50) for GDF5-induced alkaline phosphatase expression in ATDC5 cells [2]: 85 nM; Fig. S3H: IC50 of soluble RGMB for inhibition of GDF5 (10 nM)-induced SMAD signaling (BRE-Luc reporter) in C3H10T1/2 cells [2]: 47 nM; koff [3]: 0.011 s⁻¹; kon [3]: 5.3e+06 M⁻¹ s⁻¹; koff [4]: 0.0025 s⁻¹; kon [4]: 1.8e+06 M⁻¹ s⁻¹
full-length extracellular domain of RGMA (Cys48-Arg423) from FreeStyle 293 cells (domain or fragment) CKILKCNSEFWSATSGSHAPASDDTPEFCAALRSYALCTRRTARTCRGDLAYHSAVHGIEDLMSQHNCSKDGPTSQPRLRTLPPAGDSQERSDSPEICHYEKSFHKHSATPNYTHCGLFGDPHLRTFTDRFQTCKVQGAWPLIDNNYLNVQVTNTPVLPGSAATATSKLTIIFKNFQECVDQKVYQAEMDELPAAFVDGSKNGGDKHGANSLKITEKVSGQHVEIQAKYIGTTIVVRQVGRYLTFAVRMPEEVVNAVEDWDSQGLYLCLRGCPLNQQIDFQAFHTNAEGTGARRLAAASPAPTAPETFPYETAVAKCKEKLPVEDLYYQACVFDLLTTGDVNFTLAAYYALEDVKMLHSNKDKLHLYERTRDLPGR | 1.7 | 0.00045 | 270000 | 1.4 | 0.00042 | 300000 | 1.3 | 0.00052 | 420000 | 
full-length extracellular domain of RGMB (Gln49-Gly412) from FreeStyle 293 cells (domain or fragment) QQPAQCRIQKCTTDFVSLTSHLNSAVDGFDSEFCKALRAYAGCTQRTSKACRGNLVYHSAVLGISDLMSQRNCSKDGPTSSTNPEVTHDPCNYHSHAGAREHRRGDQNPPSYLFCGLFGDPHLRTFKDNFQTCKVEGAWPLIDNNYLSVQVTNVPVVPGSSATATNKITIIFKAHHECTDQKVYQAVTDDLPAAFVDGTTSGGDSDAKSLRIVERESGHYVEMHARYIGTTVFVRQVGRYLTLAIRMPEDLAMSYEESQDLQLCVNGCPLSERIDDGQGQVSAILGHSLPRTSLVQAWPGYTLETANTQCHEKMPVKDIYFQSCVFDLLTTGDANFTAAAHSALEDVEALHPRKERWHIFPSSG | 1.5 | 0.0015 | 1e+06 | 1.1 | 0.0011 | 1e+06 | 3.7 | 0.0016 | 420000 | 
full-length extracellular domain of RGMC (Gln36-Asp400) from FreeStyle 293 cells (domain or fragment) QCKILRCNAEYVSSTLSLRGGGSSGALRGGGGGGRGGGVGSGGLCRALRSYALCTRRTARTCRGDLAFHSAVHGIEDLMIQHNCSRQGPTAPPPPRGPALPGAGSGLPAPDPCDYEGRFSRLHGRPPGFLHCASFGDPHVRSFHHHFHTCRVQGAWPLLDNDFLFVQATSSPMALGANATATRKLTIIFKNMQECIDQKVYQAEVDNLPVAFEDGSINGGDRPGGSSLSIQTANPGNHVEIQAAYIGTTIIIRQTAGQLSFSIKVAEDVAMAFSAEQDLQLCVGGCPPSQRLSRSERNRRGAITIDTARRLCKEGLPVEDAYFHSCVFDVLISGDPNFTVAAQAALEDARAFLPDLEKLHLFPSD | 2.3 | 0.00026 | 160000 | 2.2 | 0.00041 | 190000 | 2.8 | 0.00064 | 240000 | 
murine activin type-2 receptor ActR2b, soluble ectodomain (residues Gly20 to Glu127) (receptor) GRGEAETRECIYYNANWELERTNQSGLERCEGEQDKRLHCYASWRNSSGTIELVKKGCWLDDFNCYDRQECVATEENPQVYFCCCEGNFCNERFTHLPEPGGPEVTYE |  |  |  |  |  |  |  |  |  | Kd [8]: 2700 nM
ActR2b extracellular domain (ActR2bECD) (receptor) SGRGEAETRECIYYNANWELERTNQSGLERCEGEQDKRLHCYASWRNSSGTIELVKKGCWLDDFNCYDRQECVATEENPQVYFCCCEGNFCNERFTHLPEAGGPEVTYEPPPTAPTLLT |  |  |  |  |  |  |  |  |  | stoichiometry N (ActR2b per GDF5 dimer (2:2:2 by chains)) [9]: 2
